We go through one molecule from patent US20210340252A1.

The target in this experiment is human TIM-3 protein (coated on ELISA plates) (human) (UniProt Q8TDQ0). As to the kind of experiment: competition ELISA on plate-coated human TIM-3 against biotinylated WBP340-BMK8 (self-competition), detection with SA-HRP. (In an ELISA, binding on a coated surface is turned into a signal by an enzyme label.)

B1: WBP340-BMK8 (antibody, from another filing, human IgG4, V domains shown)
VH: QVQLVQSGAEVKKPGSSVKVSCKASGYTFTSYNMHWVRQAPGQGLEWMGDIYPGNGDTSYNQKFKGRVTITADKSTSTVYMELSSLRSEDTAVYYCARVGGAFPMDYWGQGTTVTVSS
VL: AIQLTQSPSSLSASVGDRVTITCRASESVEYYGTSLMQWYQQKPGKAPKLLIYAASNVESGVPSRFSGSGSGTDFTLTISSLQPEDFATYFCQQSRKDPSTFGGGTKVEIKR
B1 gave an IC50 (read off the curve) of 2 nM.
